Assays:
Assay in all cases: peptide array, immobilised linear 15-mers
[1] = target: T1, ANGPTL4-derived peptide P1 (human)
T1 construct: linear 15-amino-acid peptide derived from the N-terminal coiled coil domain of human ANGPTL4
T1 peptide: GPVQSKSPRFASWDE
Method: (§1) The ability of selected antibodies of invention, namely MOR022765 and MOR022770, to bind to linear 15-amino-acid peptides derived from the N-terminal coiled coil domain of human ANGPTL4 was tested. The peptides were immobilized on a glass surface, and the ability of MOR022765 and MOR022770 to bind to the immobilized peptides was evaluated using experimental methods optimized for linear peptide epitope mapping at JPT Peptide Technologies (Berlin, Germany).

[2] = target: T2, ANGPTL4-derived peptide P2 (human)
T2 peptide: QSKSPRFASWDEMNV
Method: as §1

[3] = target: T3, ANGPTL4-derived peptide P3 (human)
T3 peptide: SPRFASWDEMNVLAH
Method: as §1

[4] = target: T4, ANGPTL4-derived peptide P4 (human)
T4 peptide: FASWDEMNVLAHGLL
Method: as §1

[5] = target: T5, ANGPTL4-derived peptide P5 (human)
T5 peptide: WDEMNVLAHGLLQLG
Method: as §1

[6] = target: T6, ANGPTL4-derived peptide P6 (human)
T6 peptide: MNVLAHGLLQLGQGL
Method: as §1

[7] = target: T7, ANGPTL4-derived peptide P7 (human)
T7 peptide: LAHGLLQLGQGLREH
Method: as §1

[8] = target: T8, ANGPTL4-derived peptide P8 (human)
T8 peptide: GLLQLGQGLREHAER
Method: as §1

[9] = target: T9, ANGPTL4-derived peptide P9 (human)
T9 peptide: QLGQGLREHAERTRS
Method: as §1

[10] = target: T10, ANGPTL4-derived peptide P10 (human)
T10 peptide: QGLREHAERTRSQLS
Method: as §1

[11] = target: T11, ANGPTL4-derived peptide P11 (human)
T11 peptide: REHAERTRSQLSALE
Method: as §1

[12] = target: T12, ANGPTL4-derived peptide P12 (human)
T12 peptide: AERTRSQLSALERRL
Method: as §1

[13] = target: T13, ANGPTL4-derived peptide P14 (human)
T13 construct: printed with S where human ANGPTL4 has C
T13 peptide: QLSALERRLSASGSA
Method: as §1

[14] = target: T14, ANGPTL4-derived peptide P16 (human)
T14 construct: printed with S where human ANGPTL4 has C
T14 peptide: RRLSASGSASQGTEG
Method: as §1

[15] = target: T15, ANGPTL4-derived peptide P18 (human)
T15 construct: printed with S where human ANGPTL4 has C
T15 peptide: GSASQGTEGSTDLPL
Method: as §1

[16] = target: T16, ANGPTL4-derived peptide P19 (human)
T16 construct: printed with S where human ANGPTL4 has C
T16 peptide: SQGTEGSTDLPLAPE
Method: as §1

[17] = target: T17, ANGPTL4-derived peptide P20 (human)
T17 peptide: TEGSTDLPLAPESRV
Method: as §1

[18] = target: T18, ANGPTL4-derived peptide P21 (human)
T18 peptide: STDLPLAPESRVDPE
Method: as §1

[19] = target: T19, ANGPTL4-derived peptide P22 (human)
T19 peptide: LPLAPESRVDPEVLH
Method: as §1

[20] = target: T20, ANGPTL4-derived peptide P24 (human)
T20 peptide: SRVDPEVLHSLQTQL
Method: as §1

[21] = target: T21, ANGPTL4-derived peptide P25 (human)
T21 peptide: DPEVLHSLQTQLKAQ
Method: as §1

[22] = target: T22, ANGPTL4-derived peptide P26 (human)
T22 peptide: VLHSLQTQLKAQNSR
Method: as §1

[23] = target: T23, ANGPTL4-derived peptide P27 (human)
T23 peptide: SLQTQLKAQNSRIQQ
Method: as §1

[24] = target: T24, ANGPTL4-derived peptide P28 (human)
T24 peptide: TQLKAQNSRIQQLFH
Method: as §1

[25] = target: T25, ANGPTL4-derived peptide P30 (human)
T25 peptide: NSRIQQLFHKVAQQQ
Method: as §1

[26] = target: T26, ANGPTL4-derived peptide P31 (human)
T26 peptide: IQQLFHKVAQQQRHL
Method: as §1

[27] = target: T27, ANGPTL4-derived peptide P32 (human)
T27 peptide: LFHKVAQQQRHLEKQ
Method: as §1

[28] = target: T28, ANGPTL4-derived peptide P33 (human)
T28 peptide: KVAQQQRHLEKQHLR
Method: as §1

[29] = target: T29, ANGPTL4-derived peptide P34 (human)
T29 peptide: QQQRHLEKQHLRIQH
Method: as §1

[30] = target: T30, ANGPTL4-derived peptide P36 (human)
T30 peptide: EKQHLRIQHLQSQFG
Method: as §1

[31] = target: T31, ANGPTL4-derived peptide P37 (human)
T31 peptide: HLRIQHLQSQFGLLD
Method: as §1

[32] = target: T32, ANGPTL4-derived peptide P39 (human)
T32 peptide: LQSQFGLLDHKHLDH
Method: as §1

[33] = target: T33, ANGPTL4-derived peptide P40 (human)
T33 peptide: QFGLLDHKHLDHEVA
Method: as §1

[34] = target: T34, ANGPTL4-derived peptide P41 (human)
T34 peptide: LLDHKHLDHEVAKPA
Method: as §1

[35] = target: T35, ANGPTL4-derived peptide P43 (human)
T35 peptide: KHLDHEVAKPARRKR
Method: as §1

Measured: binding result

B1: MOR022765 (antibody, human IgG1, lambda, V domains shown)
VH: EVQLVQSGAEVKKPGESLKISCKGSGYSFSTYWISWVRQMPGKGLEWMGIIDPSSSDTRYSPSFQGQVTISADKSISTAYLQWSSLKASDTAMYYCARVYGYVYMDVWGQGTLVTVSS
VL: SYELTQPLSVSVALGQTARITCSGDNLGKKYAYWYQQKPGQAPVLVIYDKTKRPSGIPERFSGSNSGNTATLTISRAQAGDEADYYCASYDWYSSSYVFGGGTKLTVLG
notes: human IgG1
no binding: all assays above
